Changes are numbered by the printed parent chain. Numbers in names are those of the source. Where “and” joins values, the source holds several entries; their conditions need not be identical. Equal entries are not always repeated.
T1: ADIFAB (Rattus norvegicus, UniProt P02693)
T1 construct: purchased FFA Sciences LLC, San Diego, Calif
T1 sequence (P02693 2-132): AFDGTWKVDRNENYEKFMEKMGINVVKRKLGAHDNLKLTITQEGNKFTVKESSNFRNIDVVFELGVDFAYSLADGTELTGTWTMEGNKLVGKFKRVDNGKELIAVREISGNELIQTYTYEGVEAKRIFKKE

B1: 21W 72A (protein, listed as Rattus norvegicus)
chain: T1 sequence (P02693 2-132) with M21W, L72A
modifications: PEPTIDE (1)...(131) wild-type rat intestinal fatty acid binding protein
B2: 38Y 18L 73V 72A (protein, listed as Rattus norvegicus)
chain: T1 sequence (P02693 2-132) with M18L, L38Y, L72A, A73V
modifications: PEPTIDE (1)...(131) wild-type rat intestinal fatty acid binding protein
B3: ADIFAB2: acrylodan-derivatized rI-FABP with Ala substituted for Leu at position 72 (rI-FABP-L72A), SEQ ID NO: 4 (protein, listed as Rattus norvegicus)
chain: AFDGTWKVDRNENYEKFMEKMGINVVKRKLGAHDNLKLTITQEGNKFTVKESSNFRNIDVVFELGVDFAYSAADGTELTGTWTMEGNKLVGKFKRVDNGKELIAVREISGNELIQTYTYEGVEAKRIFKKDRGHHHHHH
modifications: acrylodan label; MUTAGEN (72)...(72) rat intestinal fatty acid binding protein with alanine substitution for leucine at position 72

What was measured:
ADIFAB = target: T1, ADIFAB; test: ADIFAB screening assay in 96-well plates (emission ratio 505/432); type: binding
Text: In a preferred embodiment, the probe is a fatty acid binding protein (FABP), more preferably a recombinant rat intestinal fatty acid binding protein (rI-FABP), which has been derivatized with acrylodan. DNA and protein sequences for Fatty Acid Binding Proteins (FABPs) are shown in the sequence listing. […] The rat fatty acid binding protein is post-translationally modified in the rat, with the modifications including the removal of the N-terminal methionine and the acetylation of the “new” N-terminal residue Ala. Protein sequences are numbered starting with the first residue of the mature protein. Thus, Ala is residue 1 in the corresponding protein shown as SEQ ID NO: 2. […]
Five identical 96-well plates were prepared with 0.5 μM ADIFAB and 1% dimethyl sulfoxide in 200 μL aqueous buffer (20 mM HEPES, 140 mM NaCl, 5 mM KCl, 1 mM Na2HPO4, pH 7.4) to test assay reproducibility, precision, and quality. Wells were excited at 386 nm and the emission detected at 432 and 505 nm with a fluorescence plate reader connected via fiber optic cables to a standard Spex spectrofluorometer. The emission ratio (505/432), which determines the amount of bound […], was calculated for each well. A positive control (4 μM sodium oleate (OA)) was added to each well and the ratio was measured again. […] The Z′-factor, as defined below, provides a quantitative assessment of the assay [Zhang, J., et al J. Biomol. […]

[1] = Response profile of probe to fatty acids (Table 2); type: binding
[2] = Probe fluorescence ratio response to oleic acid relative to ADIFAB2; type: binding; settings: response relative to ADIFAB2
Outline: (§1)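 Fluorescently labeled rat intestinal FABP variants were read at two emission wavelengths, near the unbound maximum (about 420 to 480 nm) and the FFA-bound maximum (about 495 to 580 nm). R = Fλ1/Fλ2 after subtracting probe-free intensity; ΔR = R+agent − R0, normalized to ADIFAB2 (rI-FABP-L72A).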

[3] = Probe fluorescence ratio response to linoleic acid relative to ADIFAB2; type: binding; settings: response relative to ADIFAB2
Outline: as §1

[4] = Probe fluorescence ratio response to linolenic acid relative to ADIFAB2; type: binding; settings: response relative to ADIFAB2
Outline: as §1

[5] = Probe fluorescence ratio response to palmitoleic acid relative to ADIFAB2; type: binding; settings: response relative to ADIFAB2
Outline: as §1

[6] = Probe fluorescence ratio response to stearic acid relative to ADIFAB2; type: binding; settings: response relative to ADIFAB2
Outline: as §1

[7] = Probe fluorescence ratio response to palmitic acid relative to ADIFAB2; type: binding; settings: response relative to ADIFAB2
Outline: as §1

[8] = Probe fluorescence ratio response to arachidonic acid relative to ADIFAB2; type: binding; settings: arachidonic acid; response relative to ADIFAB2
Outline: as §1

[9] = Probe fluorescence intensity change with UCB:BSA; type: binding
[10] = Binding affinities of ADIFAB2 compared with ADIFAB; settings: greater than ADIFAB
Text: ADIFAB2 also has an altered spectral response, making it especially useful for measurements of FFAu in blood samples (Apple et al, Clinical Proteomics, (2004) 1:41-44, U.S. patent application Ser. No. 10/670,958). The wavelengths at the maximum intensities emitted by these fluorescently-labeled I-FABP's in the absence of FFA is about 420 to 480 nm. The emission wavelengths at the maximum intensities emitted by these fluorescently-labeled I-FABP's with FFA bound are between about 495 to 580 nm. Experiments typically involve measuring the fluorescence response within both emission maxima or at wavelengths for which the effect of interfering molecules such as hemoglobin can be eliminated as described in U.S. application Ser. No. 10/670958 and PCT/US2004/030521 and the calculation of the ratio ‘R’ of the two fluorescence intensities. The baseline value for this ratio, measured in the absence of analyte, is designated R0.

| binding affinities relative to ADIFAB [10] | Molecule | ρc+ average ratio (505/432), Positive Control (+OA) (ADIFAB; 4 μM OA, 0.5 μM ADIFAB, 1% dimethyl sulfoxide, one value per plate 1-5) | ΔR (ADIFAB; 4 μM oleate, positive control) | response profile [1] | DR/DR OA [2] | DR/DR LA [3] | DR/DR LNA [4] | DR/DR POA [5] | DR/DR SA [6] | DR/DR PA [7] | DR/DR AA [8] | ΔI/Io 1:1 UCB:BSA 440 nm ([9]; 1:1 UCB:BSA, 440 nm) | ΔI/Io 1:1 UCB:BSA 500 nm ([9]; 1:1 UCB:BSA, 500 nm) | ΔI/Io 1:2 UCB:BSA 440 nm ([9]; 1:2 UCB:BSA, 440 nm) | ΔI/Io 1:2 UCB:BSA 500 nm ([9]; 1:2 UCB:BSA, 500 nm) |
| --- | --- | --- | --- | --- | --- | --- | --- | --- | --- | --- | --- | --- | --- | --- | --- |
|  | CCCCCCCC/C=C\CCCCCCCC(=O)[O-].[Na+] [OA, sodium oleate] | 1.77 and 1.84 and 1.81 and 1.68 and 1.83 | 1.8 |  |  |  |  |  |  |  |  |  |  |  |  |
|  | B1 |  |  | Large Response, Favors AA | 2.808 | 2.551 | 2.550 | 2.120 | 1.946 | 1.637 | 3.829 |  |  |  |  |
|  | B2 |  |  | AA and SA | 0.235 | 0.034 | 0.133 | 0.023 | 0.824 | 0.067 | 1.172 |  |  |  |  |
| about 10 fold | B3 |  |  |  |  |  |  |  |  |  |  | −0.40 | −0.34 | −0.19 | −0.16 |

— patent publication US20060257938A1, “Method of screening for drugs that block ligand binding to a lipid binding protein” (priority 2005, published 2006)
